Assay results: US10280218B2, “Antibodies binding to BMP4, and uses thereof” (ACADEMISCH MEDISCH CENTRUM, priority 2014, dated 2019)

How the values were obtained:
BMP7 = target: T1, BMP7 (Homo sapiens, UniProt P18075); assay: BMP activity luciferase reporter assay (BRE-luciferase, ID1 promoter) in C2C12 cells; format: cell-based, mouse; conditions: 200 ng/ml hBMP7, 16 h; 500 ng/ml
T1 sequence (P18075 293-431): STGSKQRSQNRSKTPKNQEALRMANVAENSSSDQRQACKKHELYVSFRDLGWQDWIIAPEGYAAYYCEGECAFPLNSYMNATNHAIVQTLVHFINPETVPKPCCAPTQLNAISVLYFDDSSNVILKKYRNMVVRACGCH
Experimental: One of the most studied BMP target genes is the Inhibitor of Differentiation 1 (ID1). This is an immediate early gene that is activated by binding of the phosphorylated SMADs to its promoter region (López-Rovira et al., 2002). Thus, we employed the BMP-responsive C2C12 cells, which are stably transfected with the BRE-luciferase vector containing the BMP-Responsive-Element (the mouse ID1 promoter) cloned into the pGL3 luciferase vector (Zilberberg 2007). […] C2C12 cells were treated with the different BMPs with or without our VHHs or human Noggin at a concentration of 5 μg/ml. Luciferase activity was measured after 16 hours incubation. Most of the transcriptional data is in concordance with the results obtained with the phosphorylation of SMAD1/5/8.
C2C12 cells were plated in 96-well plates at 5×10^3 cells/well and cells were allowed to attach overnight. 100 μl of DMEM with 0.1% BSA were added in each well. VHH antibodies and human Fc-Noggin at the indicated concentrations were added at the same time. Wells with unstimulated cells were added as controls. Cells were treated in triplicate with the BMPs at the indicated concentrations for 16 hours. Luciferase activity was measured by adding 100 μl of luciferase substrate solution from the Bright-Glo™ Luciferase Assay System (Promega Benelux, Leiden, The Netherlands). After 3 minutes of incubation, luciferase activity was measured with Synergy HT Multi-Mode Microplate Reader (Biotek, Winooski, Vt., United States). Luciferase values were normalized to background activity (activity of wells with no cells) and represented as ratio to the activity of BMP-stimulated cells.
C2C12 cells were cultured in 96-well plates at 5×10^3 cells/well. […]

BMP12 = assay: as above; format: cell-based, mouse; conditions: 50 ng/ml hBMP12, 16 h; 500 ng/ml
Experimental: C2C12 cells were plated in 96-well plates when they reached confluency, cells were treated in triplicate with 25 ng/ml of BMP9, 50 ng/ml of BMP10 or 50 ng/ml of BMP12 (all from R&D Systems), for 16 hours. VHHs or Noggin were added at a concentration of 5 ug/ml. C2C12 cells or HEK293 were plated on 12-well plates and starved for 5 hours, before stimulation with 2 ng/ml of TGF-β (R&D Systems) or 100 ng/ml Activin-A (R&D Systems), respectively. VHHs at the indicated concentrations were added at the same time. After 1 hour cells were lysed, and protein isolation and SDS-PAGE separation were performed as described previously. For protein detection the following antibodies were used: antiphospho-SMAD2 at 1:1000 (Cell Signaling).
C2C12 cells were cultured in 96-well plates at 5×10^3 cells/well. After overnight attachment cells were stimulated with 10 ng/ml hBMP4 (Cat No. 314-BP-020; R&D Systems), 50 ng/ml hBMP2 (Cat No. 355-BM-010; R&D Systems), 200 ng/ml hBMP5 (Cat No. 615-BMC-020; R&D Systems), 50 ng/ml hBMP6 (Cat No. 506-BP-020; R&D Systems), 200 ng/ml hBMP7 (Cat No. 354-BP-010; R&D Systems), 25 ng/ml hBMP9 (Cat No. 3209-BP-010; R&D Systems), 25 ng/ml hBMP10 (Cat No. 2926-BP-025; R&D Systems), 50 ng/ml hBMP12 (Cat No. 779-G7-010; R&D Systems) and with or without VHH antibodies: C4C4 and C8C8 at 500 ng/ml; natural antagonist: mNoggin (Cat No. 1967-NG-025; R&D Systems), hNoggin (Cat No. 6057-NG; R&D Systems) and mGremlin (cat#956-GR-050; R&D Systems) at 500 ng/ml; chemical antagonist: 0.5 μM LDN-193189 (Cat No. 11802; Cayman Chemical) and 0.2 μM DMH1 (Cat No. 57146; Selleckchem).

BMP4 = target: T2, BMP4 (human); assay: SPR
T2 chain: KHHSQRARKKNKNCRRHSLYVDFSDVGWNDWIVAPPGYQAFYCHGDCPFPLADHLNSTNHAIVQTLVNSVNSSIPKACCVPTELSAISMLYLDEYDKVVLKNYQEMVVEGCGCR

- inhibition of BMP-7 signals, comparison of inhibitors (BMP7): inhibited
- Kd (BMP4): 0.091 nM
B1: hNoggin (protein)
chain: QHYLHIRPAPSDNLPLVDLIEHPDPIFDPKEKDLNETLLRSLLGGHYDPGFMATSPPEDRPGGGGGAAGGAEDLAELDQLLRQRPSGAMPSEIKGLEFSEGLAQGKKQRLSKKLRRKLQMWLWSQTFCPVLYAWNDLGSRFWPRYVKVGSCFSKRSCSVPEGMVCKPSKSVHLTVLRWRCQRRGGQRCGWIPIQYPIISECKCSC
- inhibition of BMP12 signals, comparison of inhibitors (BMP12): inhibited
